Test results taken from PMC10383791, “Evaluation of [^18F]AlF-EMP-105 for Molecular Imaging of C-Met” (Pharmaceutics, 2023).
Entries after “also recorded” stand apart in the source; their conditions may differ. Bridge positions count the residues as written; N and C are the ends. Ends that are not written are not given here. Peptide text beside a SMILES is read from it. * marks the point of attachment. NOTA = O=C(O)CN1CCN(CC(=O)O)CCN(CC(=O)*)CC1

How the values were obtained:
OE21 [1] = assay: Flow cytometry uptake of EMI-137 (c-Met expression level); format: cell-based; settings: 50 nM, 1 h, 37 °C
Experimental: (§1) H1975 (non-small cell lung cancer), HEPG2a (hepatocellular carcinoma), HT29 (colorectal cancer) were purchased from ATCC. OE21 (oesophageal squamous cell carcinoma) was obtained from Prof George Hanna. H1975 and OE21 cells were maintained in RPMI-1640 media (Sigma-Aldrich) supplemented with 10% fetal calf serum (Sigma-Aldrich), 1% L-glutamine, and 2% penicillin/streptomycin (Sigma-Aldrich). HEPG2a and HT29 cells were cultured in DMEM (Sigma-Aldrich) containing 10% fetal calf serum, 1% L-glutamine, and 2% penicillin/streptomycin. All cell lines were cultured at 37 °C and 5% CO2.
(§2) Approximately 500,000 cells were seeded in 6-well plates and cultured for 24 h at 37 °C and 5% CO2. Cells were washed with warm PBS and incubated with 50 nM EMI-137 for 1 h at 37 °C and 5% CO2. Subsequently, cells were washed with ice-cold PBS three times prior to sample acquisition via FACS Canto flow cytometer (Becton Dickinson Immunocytometry Systems, Franklin Lakes, NJ, USA) with FACS Diva Software version 4.0.2. The obtained data were analysed using FlowJo software v7.6 (FlowJo, LLC, Ashland, OR, USA). Unstained controls were used to define gates and adjust fluorescence compensation.

HT29 [2] = assay: as above; format: cell-based; settings: 50 nM, 1 h, 37 °C
Experimental: as §1, §2

H1975 [3] = assay: as above; format: cell-based; settings: 50 nM, 1 h, 37 °C
Experimental: as §1, §2

HEPG2a [4] = assay: as above; format: cell-based; settings: HEPG2a (negative control), 50 nM, 1 h, 37 °C
Experimental: as §1, §2

H1975 cells = assay: Internalisation assay of EMI-137 by flow cytometry; format: cell-based
Experimental: as §1
H1975 cells were seeded in a 6-well plate at a seeding density of 500,000 cells/well, 24 h prior to performing internalisation assay. […] Subsequently, cells were washed with ice-cold PBS three times. To determine internalisation levels at 4 °C, surface-bound EMI-137 was removed by washing the cells with 50 mM of glycine prepared in 150 mM NaCl (Sigma) for 5 min followed by three washes with ice-cold PBS. […] Data were presented as mean Fluorescence Intensity (MFI). The internalised fraction was determined by subtracting the surface-bound EMI-137 from total EMI-137. The percentage of internalised fraction was calculated by dividing the amount of internalised EMI-137 by total-bound EMI-137 multiplied by 100%. Unstained controls were used to define gates and adjust fluorescence compensation.

physchem = assay: physchem
Experimental: (§3) Analytical radio-HPLC chromatograms were obtained using an Agilent 1200 series instrument equipped with a flow-ram detector (Lablogic, Sheffield, UK), and integrated using Laura 6 software (Lablogic, Sheffield, UK). Column: phenomenex Aeris^TM 3.6 µm WIDEPORE C4 200 Å. Mobile phase: 0.1% TFA H2O:MeCN 95:5 v/v to 5:95 v/v, 0.8 mL/min flow rate.
(§4) A fraction of purified [^18F]AlF-EMP-105 (10 MBq in ~10 µL EtOH) was incubated, respectively, in 1000 µL of EtOH, PBS, RPMI, human serum and EDTA (0.02% in 0.5 mM DPBS) at 37 °C, and analysed by RP-HPLC at 1, 2, 3, and 4 h time points. For stability towards radiolysis, aliquots of >2 GBq of purified [^18F]AlF-EMP-105 eluted from the cartridge in ethanol (75% in 10 mM H3P0_4) or formulated in PBS solution containing 7.5% ethanol and 5 mg/mL (10 mL) of 4-aminobenzoic acid (PABA) as radioprotectant were analysed by RP-HPLC.

in vitro = settings: human, human serum
Experimental: as §3, §4

[5] = Radioactive metabolite analysis in tissues by radio-HPLC; settings: mouse i.v., mean ± s.d., n = 3
Experimental: For metabolite analysis, radio-HPLC chromatograms were obtained using an Agilent 1100 system equipped with an in-line posiRAM metabolite detector (Lablogic, Sheffield, UK). The same column and mobile phase were used.
In female BALB/c mice at 5 and 30 min p.i. of [^18F]AlF-NOTA-EMP-105, four key tissues (blood plasma, liver, kidney and urine) were analysed for radioactive metabolites by radio-HPLC. The retention time of free [^18F]fluoride and the parent compound [^18F]AlF-EMP-105 were determined by injecting a pure sample of each onto the metabolite radio-HPLC system.
The liver and kidneys were excised, and homogenised in ice cold MeCN:H2O (1 mL, 1:2 v/v) using a Precellys tissue homogeniser fitted with a Cryolys cooling module (Stretton Scientific Ltd., Derbyshire, UK). The homogenate was centrifuged (13,000× g, 5 min), the supernatant was removed, filtered (0.22 µm syringe filter) and diluted in water prior to RP-HPLC analysis. Urine was diluted in water and filtered prior to HPLC analysis. Plasma was obtained from whole blood by centrifugation (2000× g, 10 min) to separate the blood cells from the plasma. Plasma were precipitated with ice cold MeCN:H2O (1 mL, 1:2 v/v), and centrifuged (13,000× g, 5 min) to pellet the proteins. The supernatant was filtered and diluted in water for radio-HPLC analysis. The HPLC injection loop was washed with MeCN:H2O 1:1 v/v (1 mL) and then 5:95 v/v (1 mL) between each injection. The extraction efficiency from each tissue sample was determined by counting the activity (counts per minute, CPM) of a small aliquot (20 µL) of the supernatant of a known volume and the whole protein pellet, in a γ-counter.

OE21 [6] = assay: In vitro radioactive uptake with and without EMI-137 blocking; format: cell-based; settings: ~0.74 MBq, 60 min, 37 °C, gamma counting, mean ± SEM
Experimental: as §1
(§5) Cells were seeded at appropriate densities (~500,000 cells/well in a 6-well plate) and allowed to attach overnight. On the day of uptake, cells were washed three times with warm PBS and incubated with 1 mL of fresh media containing approximately 0.74 MBq of [^18F]AlF-EMP-105, with or without 100× molar equivalent of EMI-137 (blocking compound), in a humidified condition with 5% CO2 at 37 °C for 60 min. After 60 min of incubation, the cells were washed with ice-cold PBS (3 times), then lysed in 1 mL of RIPA buffer for 10 min on ice. Following this step, radioactivity from 800 µL of lysate from each sample was counted on a WIZARD2® Automatic Gamma Counter. To determine the specificity of uptake, data were expressed as a percentage of radioactivity incorporated into cells, in untreated cells compared to cells blocked with EMI-137.

HT29 [7] = assay: as above; format: cell-based; settings: ~0.74 MBq, 60 min, 37 °C, gamma counting, mean ± SEM
Experimental: as §1, §5

H1975 [8] = assay: as above; format: cell-based; settings: ~0.74 MBq, 60 min, 37 °C, gamma counting, mean ± SEM
Experimental: as §1, §5

HEPG2a [9] = assay: as above; format: cell-based; settings: HEPG2a (negative control); ~0.74 MBq, 60 min, 37 °C; gamma counting; mean ± SEM
Experimental: as §1, §5

[10] = dynamic PET 60 min, TACs, healthy mice, i.v.
Experimental: Female BALB/c mice (6–8 weeks old) were anaesthetized with 2% isoflurane/O2. Imaging was performed using a Siemens Inveon small-animal multimodality PET/CT system (Siemens Medical Solutions USA, Inc., Knoxville, TN, USA). After completion of the CT scan, [^18F]AlF-EMP-105 (4.6 ± 1.2 MBq) was injected intravenously via the lateral tail vein. Dynamic emission scans were acquired in list-mode format for 60 min. Image data were processed as 0.5 mm sinogram bins and 33 time-frames, and reconstructed using the 2D-ordered subsets expectation maximization (2D-OSEM) algorithm with CT-based attenuation correction. The following frame durations were used: 12 × 5 s, 4 × 15 s, 6 × 30 s, and 11 × 300 s. Images were analysed using Inveon Research Workplace software (Siemens Healthcare Molecular Imaging, Knoxville, TN, USA). PET and CT images were co-registered and used to draw 3-dimensional regions of interests (ROIs) over tissues to obtain time–activity curves (TACs). Decay-corrected tissue time versus radioactivity curves (TACs) were generated and normalized to whole-body activity to obtain normalized uptake values (NUVs).

With “AGSCYCSGPPRFECWCYETEGT-Cy5 (also: cyclic, ring closure not given here) [EMI-137]” the “Fluorescent uptake of EMI-137” value (OE21 [1]) was “High uptakes”, the “Fluorescent uptake of EMI-137” value (HT29 [2]) was “High uptakes” and the “Fluorescent uptake of EMI-137” value (H1975 [3]) was “High uptakes”. For the same molecule, the “Fluorescent uptake of EMI-137” value (HEPG2a [4]) was “low uptake”, the “Internalisation of EMI-137” value (H1975 cells; 0, 5, 15 and 30 min at 37 °C after 30 min at 4 °C, glycine wash) was “increased with time” and the “Difference in uptake at 37 °C versus 4 °C” value (H1975 cells; 50 nM, 30 min) was “the difference was not significant”.
Molecule `CC(=O)N[C@@H](C)C(=O)NCC(=O)N[C@@H](CO)C(=O)N[C@H]1CSSC[C@@H](C(=O)N[C@@H](Cc2ccc(O)cc2)C(=O)N[C@@H](CCC(=O)O)C(=O)N[C@H](C(=O)N[C@@H](CCC(=O)O)C(=O)NCC(=O)N[C@H](C(=O)NCC(=O)NCC(=O)NCC(=O)N[C@@H](CCCCNC(=O)CN2CCN(CC(=O)O)CCN(CC(=O)O)CC2)C(N)=O)[C@@H](C)O)[C@@H](C)O)NC(=O)[C@H](Cc2c[nH]c3ccccc23)NC(=O)[C@@H]2CSSC[C@H](NC(=O)[C@H](Cc3ccc(O)cc3)NC1=O)C(=O)N[C@@H](CO)C(=O)NCC(=O)N1CCC[C@H]1C(=O)N1CCC[C@H]1C(=O)N[C@@H](CCCNC(=N)N)C(=O)N[C@@H](Cc1ccccc1)C(=O)N[C@@H](CCC(=O)O)C(=O)N2` [[^18F]AlF-EMP-105] (Ac-AGSCYCSGPPRFECWCYETEGTGGGK(NOTA)-NH2; disulfide 4-16, 6-14) has a remaining at 1 h, 9.9 MBq/mL (physchem; EDTA (0.02% in 0.5 mM DPBS)) of 99%, a remaining at 2 h, 9.9 MBq/mL (physchem; EDTA (0.02% in 0.5 mM DPBS)) of 99% and a remaining at 3 h, 9.9 MBq/mL (physchem; EDTA (0.02% in 0.5 mM DPBS)) of 98%. For the same molecule, the remaining at 4 h, 9.9 MBq/mL (physchem; EDTA (0.02% in 0.5 mM DPBS)) was 98%, the remaining at 1 h, 9.9 MBq/mL (physchem; PBS) was 98% and the remaining at 2 h, 9.9 MBq/mL (physchem; PBS) was 97%. The remaining at 3 h, 9.9 MBq/mL (physchem; PBS) was 95%, the remaining at 4 h, 9.9 MBq/mL (physchem; PBS) was 95% and the remaining at 1 h, 9.9 MBq/mL (physchem; RPMI media) was 97%. For the same molecule, the remaining at 2 h, 9.9 MBq/mL (physchem; RPMI media) was 97%, the remaining at 3 h, 9.9 MBq/mL (physchem; RPMI media) was 97% and the remaining at 4 h, 9.9 MBq/mL (physchem; RPMI media) was 92%. For the same molecule, the remaining at 1 h, 9.9 MBq/mL (in vitro) was 99%, the remaining at 2 h, 9.9 MBq/mL (in vitro) was 99% and the remaining at 3 h, 9.9 MBq/mL (in vitro) was 98%. The remaining at 4 h, 9.9 MBq/mL (in vitro) was 97%, the “Percentage of [^18F]AlF-EMP-105 Remaining” value ([5]; kidney, 5 min p.i.) was 9.8 ± 12.9% and the “Percentage of [^18F]AlF-EMP-105 Remaining” value ([5]; kidney, 30 min p.i.) was 4.3 ± 4.3%. The “Percentage of [^18F]AlF-EMP-105 Remaining” value ([5]; liver, 5 min p.i.) was 6.2 ± 10.8%, the “Percentage of [^18F]AlF-EMP-105 Remaining” value ([5]; liver, 30 min p.i.) was 0.4 ± 0.7% and the “Percentage of [^18F]AlF-EMP-105 Remaining” value ([5]; plasma, 5 min p.i.) was 98.3 ± 1.1%. For the same molecule, the “Percentage of [^18F]AlF-EMP-105 Remaining” value ([5]; plasma, 30 min p.i.) was 93.3 ± 7.4%, the “Percentage of [^18F]AlF-EMP-105 Remaining” value ([5]; urine, 30 min p.i.) was 7.9 ± 9.2% and the “Change in radioactive uptake when blocked with 100-fold of EMI-137” value (from here on “Change … with 100-fold of EMI-137”) (OE21 [6]) was “significant decrease; also recorded: statistically significant decreases”. For the same molecule, the “Change … with 100-fold of EMI-137” value (HT29 [7]) was “significant decrease; also recorded: statistically significant decreases”, the “Change … with 100-fold of EMI-137” value (H1975 [8]) was “significant decrease; also recorded: statistically significant decreases” and the “Change … with 100-fold of EMI-137” value (HEPG2a [9]) was “not significant; also recorded: not observed”. For the same molecule, the “Time at which activity peaked, heart, lung and liver” value ([10]; heart, lung and liver) was 1 min and the “Time at which activity peaked, kidneys” value ([10]; kidneys) was 2.5 min.
